The RNAGym collection of RNA variant scans (doi:10.7554/elife.90254)

B1: OR4K15 (parent)
chain: GUUAACGGUCAUAGGCCAUGGAAACUAGGAGCACCAUUUCGCUGCCAGUGAAGAAAUGAACAAAGAAAAUCUGGGCCAGGCAGGCAUCAAAAGAAAUAGUCUUGCGCUCAACCAGAAAGUCUGUAAUCAUUUUAAGGGUA

Variants of: B1
Assay: self-cleavage, relative activity (ratio to wild type); higher = more cleavage; in vitro, sequencing; the parent is a self-cleaving ribozyme

Variant	self-cleavage
U9A U43C	1.25
U9A U43G	1.18
U9C A18G	1.65
A11G A92U	1.26
A11G A92G	1.1
U9C U70A	0.97
U9C U70C	0.77
G8A A59G	1.47
A11G A62G	1.11
U9C G21A	1.38
U9C A33G	1.15
U9C A33U	1.73
G8A A33U	2.08
U9C U120C	1.66
G7U A68G	2.39
G7A C112U	0.02
U9G C45G	0.5
A11G A82G	0.55
G7U U130C	1.45
A11G A89G	0.59
A11G A89U	1.34
U9C C45G	0.85
A11G A117G	1.19
U9G A69G	1

Variant	self-cleavage
C10U U57C	1.03
C10U G104A	0.06
U9A U127A	0.66
U9A U127C	1.05
U9A A82G	1.13
U9A A82U	0.12
G7A A96G	2.05
G7A A96U	1.83
U9C U38C	1.7
U9C U38A	1.98
G8C A110G	0.26
U9G A59G	1
U9C A13G	0.81
C10U C77U	0.98
A11G A22U	1.75
U9C A126G	1.19
C10A A69G	0.29
U9A U72C	0.16
G7U G138C	2.14
U9C G48A	0.64
U9A A95G	1.18
U9C C109A	0.49
U9C C109G	0.04
A11C U97C	1.26

Variant	self-cleavage
U9A A135U	1
U9A A135G	1.41
C10U A118G	0.33
U9A A78U	0.15
U9A A78G	0.32
G7A A111U	0.04
G7C A91G	0.76
G8A A134G	1.52
A11G A95G	1.73
U9C C17U	1.8
G7A U26C	1.44
G7A U26A	0.93
A11G A60G	0.86
U9A A30U	1.22
U9C A63G	1.64
A11C A91G	1.67
G8A A23G	1.58
G7U U122A	1.64
C10A A30G	0.63
U9A A60G	0.57
U9A U122G	2.09
C10A U127C	0.84
G7U U38C	0.4
U9G A68G	0.72

Variant	self-cleavage
U9A U100C	1.68
C10A C77U	1.18
U9C G104A	0.06
A11G C71G	0.34
C10U U38A	0.84
U9C A56G	1.24
G7A U100C	2.22
G7A U100A	0.82
G7A C34U	1.3
G8A U43A	2.05
U9C A22U	1.7
U9C A90G	1.04
C10A A110G	0.31
A11G A54U	1.09
U9A U70C	1.07
G8U A69G	2.76
G7A U102C	1.75
A11G A96G	1.18
U9C A27G	1.55
U9C A27U	1.02
A11G A52G	1.03
U9A U57C	1.02
G7U A60G	0.79
A11C U127C	0.83

Variant	self-cleavage
U9A A22C	0.95
A11G A63C	0.97
A11G A63G	1.1
U9C A23G	1.02
U9A U120A	1.36
U9A U120C	0.79
U9C A118U	0.88
U9C A118G	1.32
U9A A111G	0.03
U9C U43G	2.16
U9C U43A	1.24
U9C A59U	1.48
U9C A82C	0.07
C10U G14U	0.49
U9C A51U	2.13
A11C A60G	1.07
G8A A18U	0.97
A11G A129U	0.45
A11G A129G	0.83
A11G A67G	0.74
A11G A67U	1.16
A11C A63G	1.91
U9C A110U	1.32
U9C A110C	0.45

Variant	self-cleavage
U9C G74U	0.15
G8A A69G	1.29
U9C C16U	1.59
G7A A86U	1.86
A11G C32G	0.61
U9C U37C	1.57
A11G A118G	1.02
U9G U12C	0.29
U9G A118G	0.91
A11G A18U	0.46
A11G A18G	1.36
A11G A98G	0.33
C10U A82U	0.13
U9A A36G	1.59
U9A U132C	0.79
U9A G106C	0.05
U9C A11G	0.85
U9C A11C	1.71
G8A U108A	0.05
U9C G29A	2.15
G7A A78U	0.33
G7U U26C	2.12
U9A A54G	1.42
A11G A114U	0.15

Variant	self-cleavage
U9C A94G	1.35
U9A C109A	0.42
G7U A13G	1.41
U9A A62U	0.88
U9A A62G	0.45
U9C A134G	1.55
G7U G137U	1.84
G8A A91G	1.17
C10U U19C	1.34
U9A A23G	0.95
A11C A24G	1.94
G8A A52G	2.73
U9C G41U	1.55
U9G A89U	1.03
C10G A60G	0.77
A11G A51U	0.82
A11G G14A	1.31
U9C C85U	1.44
G8C A52C	2.89
U9C U124C	1.25
A11G A55G	0.92
A11G A111C	0.04
A11G A111U	0.11
